Reference: patent US11402384B2 (Duke University, priority 2015, dated 2022)
Positions count from the first letter of the chain named. Numbers in names are those of the source.

B1: W244F A: tsGBP2.13C.W244F (SEQ ID NO: 48) Acrylodan conjugate (conjugate)
chain: MKLEIFSWWAGDCGPALEALIRLYKQKYPGVEVINATVTGGAGVNAKAVLKTRMLGGDPPDTFQVHAGQELIGTWVVADRMEDLTSLFRQEGWLQAFPKGLIDLLSYKGGIWSVPVNIHRSNVMWYIPAKLKEWGVTPPKTWAEFLATAQTLKRKGLEAPLALGENWTQQHLWESVALATLGADGWNNLWSGKLKFTDPKAVAVWETFGKVLDAANKDAAGLSWQQAVDRVVQGKAAFNIMGDFAAGYMSTTLKLKPGTDFAWTPSPGTSGIFMMLSDSFGLPKGAKNRQNAINWLKLVGSKEGQDTFNPLKGSIAARLDSDPAKYNAYGQSAMKDWKSNRIVGSLVHGAVAPESFMSQFGTVMEIFLQSRNPQAAANAAQAIANQVGLGRGGSHHHHHH
modifications: Acrylodan conjugate; tsGBP2.13C.W244F (13C, 244F double substitution mutant with signal peptide replaced with M and a GGSHHHHHH at C-terminus)
B2: tsGBP2: glucose-binding protein from Thermus scotoductus, SEQ ID NO: 10 (protein)
chain: B1 chain with C13E, F244W
modifications: tsGBP2 (with signal peptide replaced with M and a GGSHHHHHH at C-terminus)
B3: dmGBP3: glucose-binding protein from Deinococcus maricopensis, SEQ ID NO: 11 (protein)
chain: MKLEIFSWWSGDEGPALEALVKLYKQKYPSVDVVNATVAGGAGTNAKAVLKTRMLGGDPPDSFQAHAGQELIGTWVVANRMEDLSSLFKSEGWTTKFPKDLLPLISSKGGIWSVPVNVHRSNVMWYIPANLKKWGVTAPKTWDQFLTTAKTLKTKNVTPLALGENWTQQHLWESVAVGTLGAQGWQNLWSGKLKFTDPKVVKVWDTFGKVLDATNKDASGLSWQQATDRVVNGQAAFNIMGDWAAGYLSTTKKLKPGTGFGWAPSPSTSGTFIFLADSFGLPKGAKDRAEALSWLKLLGSKQGQDTFNPLKGSIAARVDSDLSKYSTYSQSAAKDWKSNKIVGSLTHGAVAPESFTSTFGTVIDAFVASRNAQVAAATTQQLADKAGLGKGGSHHHHHH
modifications: dmGBP3 (with signal peptide replaced with M and a GGSHHHHHH at C-terminus)

Tests used:
[1] = Immobilization on Ni-NTA magnetic beads, drying and accelerated aging of sensor; assay type: physicochemical
Protocol: The magnetic beads coated with immobilized tsGBP13C_ 244F.Acrylodan were dried by incubation at 50° C. for 20 minutes, using an aqueous ammonium bicarbonate buffer. […] The dried beads were aged in situ inside fully assembled sample-handling cartridges by incubation for up to 7 days at 25° C., 37° C., and 50° C. in the dark. Fluorescence and glucose-responsive properties were tested in cartridges stored for 1, 2 and 7 days. […] The tsGBP2-based FRSs therefore are sufficiently robust to be handled at ambient temperatures in a desiccated state, greatly simplifying manufacturing, distribution, and long-term storage conditions.

[2] = ligand-free protein; SYPRO Orange, Roche LightCycler
Protocol: Eight homologs that were predicted to be glucose-binding proteins (FIG. 4, Table 3) were selected to probe different degrees of sequence identity to the ttGBP1 seed, and their glucose-binding properties were determined experimentally. These experiments comprised four successive steps: • 1. Synthetic gene construction. The amino acid sequence of the homology leads were backtranslated into DNA sequences. These were optimized for directing heterologous cytoplasmic expression of the protein homologues in E. coli, using either the OrfOpt or OrfMorph programs. These programs predict mRNA sequences that direct high-level protein expression in E. coli. The predicted gene sequences were assembled de novo from synthetic oligonucleotides. • 2. Heterologous protein expression of the homologues in E. coli. Plasmids carrying the synthetic expression constructs (see above) were transformed into KRX competent cells (Promega). Protein production was induced in bacterial cultures of these cultures, as described in the Materials and Methods. • 3. Purification of successfully expressed protein using immobilized metal affinity chromatography. • 4. Verification of glucose binding. Determination of the glucose-binding properties of the purified proteins using a thermal stability shift assay.
Analysis of glucose-binding properties using thermal melts. The thermal stability of purified GBP candidate proteins was determined by measuring the temperature-dependence of the fluorescence signal of an extrinsically added dye, SYPRO, using a Roche LightCycler (Layton and Hellinga, 2010, Biochemistry, 49, 10831-41). The total fluorescence intensity, S, is given by S=βFfF+βUfU 11 where fF and fU are the fractions of protein in the folded and unfolded states, respectively, and βF and βU the fluorescence baselines of these two states. To get the fractions of the two states, we have
[formula] where KU(T) is the temperature-dependent unfolding equilibrium constant, which by the van't Hoff approximation is given by
[formula] Where T is the temperature, Tm, the unfolding reaction transition mid-point temperature, and ΔHU the enthalpy of unfolding.

Row | Molecule | stability properties upon rehydration after drying ([1]; beads dried at 50° C. for 20 minutes, determined up to 100° C.) | fluorescence ratio in the absence of glucose and glucose affinities after aging ([1]; dried beads stored 1, 2 and 7 days at 25° C., 37° C., and 50° C. in the dark) | protein stability on beads compared with solution ([1]; immobilized via C-terminal hexa-histidine tag on Ni-NTA magnetic beads, measured up to 100° C.) | Thermostability ^apoTm [2]
1 | B1 | recovered upon rehydration | remained approximately unchanged | not perturbed | –
2 | B2 | – | – | – | >100 °C
3 | B3 | – | – | – | 47 °C
